# Measurements published in patent US20190282704A1.
# B1: mouse: feline 11E12 chimera (antibody)
# heavy: QVQLQQSGAELVKPGASVKLSCKASGYTFKYYDINWVRQRPEQGLEWIGWIFPGDGGTKYNETFKGKATLTTDKSSSTAYMQLSRLTSEDSAVYFCARGGTSVIRDAMDYWGQGTSVTVSSASTTAPSVFPLAPSCGTTSGATVALACLVLGYFPEPVTVSWNSGALTSGVHTFPAVLQASGLYSLSSMVTVPSSRWLSDTFTCNVAHPPSNTKVDKTVRKTDHPPGPKPCDCPKCPPPEAAGAPSIFIFPPKPKDTLSISRTPEVTCLVVDLGPDDSDVQITWFVDNTQVYTAKTSPREEQFNSTYRVVSVLPILHQDWLKGKEFKCKVNSKSLPSPIERTISKAKGQPHEPQVYVLPPAQEELSRNKVSVTCLIKSFHPPDIAVEWEITGQPEPENNYRTTPPQLDSDGTYFVYSKLSVDRSHWQRGNTYTCSVSHEALHSHHTQKSLTQSPGK
# light: DIVLTQSPASLAVSLGQRATISCRASESVDNYGISFMHWYQQKPGQPPKLLIYRASNLESGIPARFSGSGSRTDFTLTINPVETDDVATYYCQQSNKDPLTFGAGTKLELKRSDAQPSVFLFQPSLDELHTGSASIVCILNDFYPKEVNVKWKVDGVVQNKGIQESTTEQNSKDSTYSLSSTLTMSSTEYQSHEKFSCEVTHKSLASTLVKSFQRSECQRE
# B2: Feline 11E12 1.2 (antibody, V domains shown)
# VH: QVLLVQSGAEVKKPGASVKIFCKASGYSFTYYDINWLRQAPEQGLEWMGWIFPGDGGTKYNETFKGRLTLTADTSTNTVYMELSSLRSADTAMYYCARGGTSVIRDAMDYWGQGALVTVSS
# VL: EVVLTQSSAFLSRTLKEKATITCRASESVDNYGISFMHWYQQKPNQAPKLLVKRASNLESGAPSRFSGSGSGTDFTLTISSPEPEDAATYYCQQSNKDPLTFGQGT
# B3: Feline 11E12 1.1 FW2 (antibody, V domains shown)
# VH: B2 VH
# VL: EIQMTQSPSSLSASPGDRVTITCRASESVDNYGISFMHWYQQKPGQPPKLLIYRASNLESGVPSRFSGSGSGTDFTLTISSLEPEDAATYYCQQSNKDPLTFGQGT
# B4: mouse: canine 11E12 chimera (antibody)
# heavy: QVQLQQSGAELVKPGASVKLSCKASGYTFKYYDINWVRQRPEQGLEWIGWIFPGDGGTKYNETFKGKATLTTDKSSSTAYMQLSRLTSEDSAVYFCARGGTSVIRDAMDYWGQGTSVTVSSASTTAPSVFPLAPSCGSTSGSTVALACLVSGYFPEPVTVSWNSGSLTSGVHTFPSVLQSSGLYSLSSMVTVPSSRWPSETFTCNVAHPASKTKVDKPVPKRENGRVPRPPDCPKCPAPEMLGGPSVFIFPPKPKDTLLIARTPEVTCVVVDLDPEDPEVQISWFVDGKQMQTAKTQPREEQFNGTYRVVSVLPIGHQDWLKGKQFTCKVNNKALPSPIERTISKARGQAHQPSVYVLPPSREELSKNTVSLTCLIKDFFPPDIDVEWQSNGQQEPESKYRTTPPQLDEDGSYFLYSKLSVDKSRWQRGDTFICAVMHEALHNHYTQESLSHSPGK
# light: DIVLTQSPASLAVSLGQRATISCRASESVDNYGISFMHWYQQKPGQPPKLLIYRASNLESGIPARFSGSGSRTDFTLTINPVETDDVATYYCQQSNKDPLTFGAGTKLELKRNDAQPAVYLFQPSPDQLHTGSASVVCLLNSFYPKDINVKWKVDGVIQDTGIQESVTEQDKDSTYSLSSTLTMSSTEYLSHELYSCEITHKSLPSTLIKSFQRSEC
# B5: ZTS-927 (antibody)
# heavy: QVLLVQSGAEVRTPGASVKIFCKASGYSFTSYTIHWLRQAPAQGLEWMGNINPTSGYTENNQRFKDRLTLTADTSTNTAYMELSSLRSADTAMYYCARWGFKYDGEWSFDVWGAGTTVTVSSASTTAPSVFPLAPSCGTTSGATVALACLVLGYFPEPVTVSWNSGALTSGVHTFPAVLQASGLYSLSSMVTVPSSRWLSDTFTCNVAHPPSNTKVDKTVRKTDHPPGPKPCDCPKCPPPEMLGGPSIFIFPPKPKDTLSISRTPEVTCLVVDLGPDDSDVQITWFVDNTQVYTAKTSPREEQFNSTYRVVSVLPILHQDWLKGKEFKCKVNSKSLPSPIERTISKAKGQPHEPQVYVLPPAQEELSRNKVSVTCLIKSFHPPDIAVEWEITGQPEPENNYRTTPPQLDSDGTYFVYSKLSVDRSHWQRGNTYTCSVSHEALHSHHTQKSLTQSPGK
# light: EIQMTQSPSSLSASPGDRVTITCRASQGISIWLSWYQQKPGNIPKVLINKASNLHIGVPSRFSGSGSGTDFTLTISSLEPEDAATYYCLQSQTYPLTFGGGTKLEIKRSDAQPSVFLFQPSLDELHTGSASIVCILNDFYPKEVNVKWKVDGVVQNKGIQESTTEQNSKDSTYSLSSTLTMSSTEYQSHEKFSCEVTHKSLASTLVKSFQRSECQRE
# B6: ZIL9 (antibody, V domains shown)
# VH: EVQLVESGGDLVKPPGSLRLSCVASGFTFSSYDMTWVRQAPGKGLQWVADVNSGGTGTAYAVAVKGRFTISRDNAKKTLYLQMNSLRAEDTAVYYCAKLGVRDGLSVWGQGTLVTVSS
# VL: SSVLTQPPSVSVSLGQTATISCSGESLNEYYTQWFQQKAGQAPVLVIYRDTERPSGIPDRFSGSSSGNTHTLTISGARAEDEADYYCESAVDTGTLVFGGGTHLAVLR
# B7: ZIL69 (antibody, V domains shown)
# VH: EVQLVESGGDLVKPAGSLRLSCVASGFTFSSYAMKWVRQAPGKGLQWVATINNDGTRTGYADAVRGRFTISKDNAKNTLYLQMDSLRADDTAVYYCTKGNAESGCTGDHCPPYWGQGTLVTVSS
# VL: SSVLTQPPSVSVSLGQTATISCSGESLNKYYAQWFQQKAGQAPVLVIYKDTERPSGIPDRFSGSSAGNTHTLTISGARAEDEADYYCESAVSSETNVFGSGTQLTVLR
# B8: ZIL1 (antibody, V domains shown)
# VH: EVQLVESGGDLVKPGGSLRLSCVASGFTFSSYGMSWVRQAPGKGLQWVAHINSGGSSTYYADAVKGRFTISRDNAKNTLYLQMNSLRAEDTAVYYCVEVYTTLAAFWTDNFDYWGQGTLVTVSS
# VL: QSVLTQPTSVSGSLGQRVTISCSGSTNNIGILAATWYQQLPGKAPKVLVYSDGNRPSGVPDRFSGSKSGNSATLTITGLQAEDEADYYCQSFDTTLDAYVFGSGTQLTVLR
# B9: Feline 15H05 3.2 (antibody, V domains shown)
# VH: QVLLVQSGAEVRKPGASVKIFCKASGYSFTSYTIHWLRQAPEQGLEWMGNINPTSGYTENNQRFKDRLTLTADTSTNTAYMELSSLRSADTAMYYCARWGFKYDGEWSFDVWGAGTTVTVSS
# VL: EITMTQSPGSLAGSPGQQVTMNCRASQGISIWLSWYQQKPGQHPKLLIYKASNLHIGVPDRFSGSGSGTDFTLTISNLQAEDVASYYCLQSQTYPLTFGGGTKLEIK
# Target: wildtype feline IL-31 (Feline_IL31_wildtype) (feline)
# Assay: not given
# Sequence of wildtype feline IL-31 (Feline_IL31_wildtype) (feline) (chain, as listed by the source limits assumed, form in doubt): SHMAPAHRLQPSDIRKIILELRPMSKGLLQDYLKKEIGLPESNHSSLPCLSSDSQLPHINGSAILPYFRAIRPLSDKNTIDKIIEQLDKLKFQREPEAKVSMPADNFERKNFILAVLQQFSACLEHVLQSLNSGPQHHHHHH
"IC50, inhibition of feline IL-31-induced STAT3 phosphorylation, canine DH82 cells","IC50, inhibition of feline IL-31-induced STAT3 phosphorylation, feline FCWF4 cells",Binder
4.4 µg/mL,3.45 µg/mL,B1
> 100 µg/mL,> 100 µg/mL,B2
5.66 µg/mL,4.38 µg/mL,B3
,1.15 µg/mL,B4
1.57 µg/mL,5.26 µg/mL,B5

# Target: feline IL-31 15H05 mutant (Feline_IL31_15H05 mutant) (feline)
# Assay: indirect ELISA, coated IL-31; note: test concentration or dose not given here
# Sequence of feline IL-31 15H05 mutant (Feline_IL31_15H05 mutant) (feline) (chain, as listed by the source mutant limits assumed, form in doubt): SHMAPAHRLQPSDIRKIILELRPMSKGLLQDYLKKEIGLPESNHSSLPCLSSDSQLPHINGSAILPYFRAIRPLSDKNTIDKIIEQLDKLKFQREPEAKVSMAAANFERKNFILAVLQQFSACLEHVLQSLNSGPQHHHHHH
row,Binding (ELISA OD),Binder
1,0.73 OD,B6
2,0.92 OD,B7
3,0.92 OD,B8

# Target: wildtype feline IL-31 (Feline_IL31_wildtype) (feline)
# Assay: indirect ELISA, coated IL-31; note: test concentration or dose not given here
row,Binding (ELISA OD),Binder
1,1.8 OD,B6
2,1.48 OD,B7
3,1.89 OD,B8

# Target: canine IL-31 (Canine_IL31) (canine)
# Assay: SPR (Biacore), immobilised IL-31, 1:1 fit
# Sequence of canine IL-31 (Canine_IL31) (canine) (chain, as listed by the source limits assumed, form in doubt): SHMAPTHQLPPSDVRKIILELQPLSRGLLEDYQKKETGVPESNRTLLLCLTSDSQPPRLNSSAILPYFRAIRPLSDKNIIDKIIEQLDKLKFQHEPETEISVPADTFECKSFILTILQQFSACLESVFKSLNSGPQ
Kd,koff,kon,Binder
0.127 pM,8.7e-08 s⁻¹,684000 M⁻¹ s⁻¹,B1
7020 pM,0.000318 s⁻¹,45200 M⁻¹ s⁻¹,B3
0.826 pM,6.55e-07 s⁻¹,793000 M⁻¹ s⁻¹,B4
204 pM,6.04e-06 s⁻¹,29700 M⁻¹ s⁻¹,B9

# Target: wildtype feline IL-31 (Feline_IL31_wildtype) (feline)
# Assay: SPR (Biacore), immobilised IL-31, 1:1 fit
Kd,koff,kon,Binder
130 pM,5.06e-05 s⁻¹,388000 M⁻¹ s⁻¹,B1
750 pM,0.000639 s⁻¹,852000 M⁻¹ s⁻¹,B3
248 pM,0.000108 s⁻¹,437000 M⁻¹ s⁻¹,B4
12600 pM,0.00166 s⁻¹,132000 M⁻¹ s⁻¹,B9
614 pM,2.3e-05 s⁻¹,37400 M⁻¹ s⁻¹,B5
